Here are results for four proteins from publication doi:10.1101/2022.03.13.484121, “Helical ultrastructure of the oncogenic metalloprotease meprin α in complex with a small molecule hydroxamate inhibitor” (bioRxiv, 2022).

Data set [1] concerns the molecule itself. Kind of data set: MALDI-TOF mass spectrometry; C4 ZipTip purified samples, DHAP matrix, linear positive mode; zymogen and mature forms; shows only the covalent (disulphide) dimer.
Data set [2] deals with the molecule itself. The data set is described as follows: electron microscopy (cryo-TEM, 120 kV); inspection of particles of the purified variants.

B1: pro-meprin α R372T (enzyme, human (from the printed accession), UniProt Q16819 22-600, looked up)
chain: VPIKYLPEENVHDADFGEQKDISEINLAAGLDLFQGDILLQKSRNGLRDPNTRWTFPIPYILADNLGLNAKGAILYAFEMFRLKSCVDFKPYEGESSYIIFQQFDGCWSEVGDQHVGQNISIGQGCAYKAIIEHEILHALGFYHEQSRTDRDDYVNIWWDQILSGYQHNFDTYDDSLITDLNTPYDYESLMHYQPFSFNKNASVPTITAKIPEFNSIIGQRLDFSAIDLERLNRMYNCTTTHTLLDHCTFEKANICGMIQGTRDDTDWAHQDSAQAGEVDHTLLGQCTGAGYFMQFSTSSGSAEEAALLESRILYPKRKQQCLQFFYKMTGSPSDRLVVWVRRDDSTGNVTKLVKVQTFQGDDDHNWKIAHVVLKEEQKFRYLFQGTKGDPQNSTGGIYLDDITLTETPCPTGVWTVRNFSQVLENTSKGDKLQSPRFYNSEGYGFGVTLYPNSRESSGYLRLAFHVCSGENDAILEWPVENRQVIITILDQEPDVRNRMSSSMVFTTSKSHTSPAINDTVIWDRPSRVGTYHTDCNCFRSIDLGWSGFISHQMLKRRSFLKNDDLIIFVDFEDITHLS
notes: meprin α pro-form V22-S600 of uniprot Q16819 with R372T (removes a salt bridge of the helix interface); SEC-MALS was done on the zymogen (legend S6c); also called Pro-Meprin α variant R372T; source: S2 cells, secreted, purified (HIC-EBA, Strep-Tactin)
Regarding B1, the “stoichiometry N” value in data set [1] was 2.

B2: pro-meprin α R372A (enzyme, human (from the printed accession), UniProt Q16819 22-600, looked up)
chain: VPIKYLPEENVHDADFGEQKDISEINLAAGLDLFQGDILLQKSRNGLRDPNTRWTFPIPYILADNLGLNAKGAILYAFEMFRLKSCVDFKPYEGESSYIIFQQFDGCWSEVGDQHVGQNISIGQGCAYKAIIEHEILHALGFYHEQSRTDRDDYVNIWWDQILSGYQHNFDTYDDSLITDLNTPYDYESLMHYQPFSFNKNASVPTITAKIPEFNSIIGQRLDFSAIDLERLNRMYNCTTTHTLLDHCTFEKANICGMIQGTRDDTDWAHQDSAQAGEVDHTLLGQCTGAGYFMQFSTSSGSAEEAALLESRILYPKRKQQCLQFFYKMTGSPSDRLVVWVRRDDSTGNVAKLVKVQTFQGDDDHNWKIAHVVLKEEQKFRYLFQGTKGDPQNSTGGIYLDDITLTETPCPTGVWTVRNFSQVLENTSKGDKLQSPRFYNSEGYGFGVTLYPNSRESSGYLRLAFHVCSGENDAILEWPVENRQVIITILDQEPDVRNRMSSSMVFTTSKSHTSPAINDTVIWDRPSRVGTYHTDCNCFRSIDLGWSGFISHQMLKRRSFLKNDDLIIFVDFEDITHLS
notes: meprin α pro-form V22-S600 of uniprot Q16819 with R372A (removes a salt bridge of the helix interface); source: S2 cells, secreted, purified (HIC-EBA, Strep-Tactin)
Regarding B2, in data set [2], the “stoichiometry N” value was 2.

B3: pro-meprin α (V22-S600), wild type (enzyme, human (from the printed accession), UniProt Q16819 22-600, looked up)
chain: VPIKYLPEENVHDADFGEQKDISEINLAAGLDLFQGDILLQKSRNGLRDPNTRWTFPIPYILADNLGLNAKGAILYAFEMFRLKSCVDFKPYEGESSYIIFQQFDGCWSEVGDQHVGQNISIGQGCAYKAIIEHEILHALGFYHEQSRTDRDDYVNIWWDQILSGYQHNFDTYDDSLITDLNTPYDYESLMHYQPFSFNKNASVPTITAKIPEFNSIIGQRLDFSAIDLERLNRMYNCTTTHTLLDHCTFEKANICGMIQGTRDDTDWAHQDSAQAGEVDHTLLGQCTGAGYFMQFSTSSGSAEEAALLESRILYPKRKQQCLQFFYKMTGSPSDRLVVWVRRDDSTGNVRKLVKVQTFQGDDDHNWKIAHVVLKEEQKFRYLFQGTKGDPQNSTGGIYLDDITLTETPCPTGVWTVRNFSQVLENTSKGDKLQSPRFYNSEGYGFGVTLYPNSRESSGYLRLAFHVCSGENDAILEWPVENRQVIITILDQEPDVRNRMSSSMVFTTSKSHTSPAINDTVIWDRPSRVGTYHTDCNCFRSIDLGWSGFISHQMLKRRSFLKNDDLIIFVDFEDITHLS
modifications: N-linked glycosylations (sites not given in the text)
notes: meprin α, pro-form without signal peptide, EGF-like domain and transmembrane region; V22-S600 of uniprot Q16819; Cloned into pMT/BiP/V5; Subunits form a disulphide-linked (C308) homodimer; the dimers form helical filaments; also called zymogen; wild type meprin α; source: Schneider-2 Drosophila cells (S2), secreted, purified (HIC-EBA, Strep-Tactin)
Take B3: in data set [1], the “stoichiometry N” value is 2.

B4: meprin α, active (mature) form, wild type (enzyme, human (from the printed accession), UniProt Q16819 22-600, looked up)
chain: NGLRDPNTRWTFPIPYILADNLGLNAKGAILYAFEMFRLKSCVDFKPYEGESSYIIFQQFDGCWSEVGDQHVGQNISIGQGCAYKAIIEHEILHALGFYHEQSRTDRDDYVNIWWDQILSGYQHNFDTYDDSLITDLNTPYDYESLMHYQPFSFNKNASVPTITAKIPEFNSIIGQRLDFSAIDLERLNRMYNCTTTHTLLDHCTFEKANICGMIQGTRDDTDWAHQDSAQAGEVDHTLLGQCTGAGYFMQFSTSSGSAEEAALLESRILYPKRKQQCLQFFYKMTGSPSDRLVVWVRRDDSTGNVRKLVKVQTFQGDDDHNWKIAHVVLKEEQKFRYLFQGTKGDPQNSTGGIYLDDITLTETPCPTGVWTVRNFSQVLENTSKGDKLQSPRFYNSEGYGFGVTLYPNSRESSGYLRLAFHVCSGENDAILEWPVENRQVIITILDQEPDVRNRMSSSMVFTTSKSHTSPAINDTVIWDRPSRVGTYHTDCNCFRSIDLGWSGFISHQMLKRRSFLKNDDLIIFVDFEDITHLS
modifications: N-linked glycosylations (sites not given in the text)
notes: meprin α construct V22-S600 of uniprot Q16819 after removal of the pro-peptide by trypsin; also called active state
For B4, in data set [1], the “stoichiometry N” value came out at 2.
